Laboratory results reported in patent US20090269786A1.

Columns and labels:
[1] = target: human ρ1 GABAC receptor (human) (UniProt P24046); test: flow cytometry on SHp5-ρ1 cells, antibody at 1/1,000 dilution
[2] = target: human ρ1 GABAC receptor (human) (UniProt P24046); test: flow cytometry on SHp5-ρ1 cells, antibody at 1/25 or 1/50 dilution

Chain of UniProt P24046 (P24046 22-479): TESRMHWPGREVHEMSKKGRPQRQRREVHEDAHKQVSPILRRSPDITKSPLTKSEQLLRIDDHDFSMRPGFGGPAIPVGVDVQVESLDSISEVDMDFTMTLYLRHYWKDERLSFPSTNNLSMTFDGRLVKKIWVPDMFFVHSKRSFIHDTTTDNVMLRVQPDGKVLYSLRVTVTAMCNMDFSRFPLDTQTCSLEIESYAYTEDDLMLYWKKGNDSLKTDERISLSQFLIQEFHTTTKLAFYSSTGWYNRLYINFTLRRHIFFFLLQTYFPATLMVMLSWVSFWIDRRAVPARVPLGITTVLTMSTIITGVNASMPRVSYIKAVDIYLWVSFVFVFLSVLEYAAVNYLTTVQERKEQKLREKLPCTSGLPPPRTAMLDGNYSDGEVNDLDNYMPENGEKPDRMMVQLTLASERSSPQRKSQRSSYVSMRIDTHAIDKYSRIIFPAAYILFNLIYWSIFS

Substance: affinity-purified GABAC Ab N-14 (antibody)
- percent positive cells [1]: 47%
- percent positive cells [2]: 63%
